Patent publication US20110287512

Columns and labels:
[1] = tested on: ZFN7264 linker TGLPKPKP (artificial); assay: cell_activity; details: yeast, paired with 7263 ZFN
[2] = tested on: ZFN7264 linker TGGGGSQKP (artificial); assay: cell_activity; details: yeast, paired with 7263 ZFN
[3] = tested on: ZFN7264 linker 1e center linker F2-F3 TGSQKP replaced by TVPRPTPPKP (artificial); assay: cell_activity; details: normalized yeast MEL-1 score, with invariant 7263 ZFN partner
[4] = tested on: ZFN7264 (host) (artificial); assay: cell_activity; details: yeast, paired with 7263 ZFN
[5] = tested on: ZFN7264 linker TSRPRPKP (artificial); assay: cell_activity; details: yeast, paired with 7263 ZFN
[6] = tested on: ZFP8196 linker TCPRPPTRKP center linker F2-F3 TGEKP replaced by TCPRPPTRKP (artificial); assay: ELONA; details: normalized ELISA score
[7] = tested on: ZFP8196 linker TVSPAPCRSKP center linker F2-F3 TGEKP replaced by TVSPAPCRSKP (artificial); assay: ELONA; details: normalized ELISA score
[8] = tested on: ZFP8196 linker 1f center linker F2-F3 TGEKP replaced by TYPRPIAAKP (artificial); assay: ELONA; details: normalized ELISA score
[9] = tested on: ZFP8196 (host, center linker TGEKP) (artificial); assay: ELONA; details: normalized ELISA score
[10] = tested on: ZFP8196 linker 1c center linker F2-F3 TGEKP replaced by THPRAPIPKP (artificial); assay: ELONA; details: normalized ELISA score
[11] = tested on: ZFP8196 linker TPDRPISTCKP center linker F2-F3 TGEKP replaced by TPDRPISTCKP (artificial); assay: ELONA; details: normalized ELISA score
[12] = tested on: ZFP8196 linker TPSHTPRPKP center linker F2-F3 TGEKP replaced by TPSHTPRPKP (artificial); assay: ELONA; details: normalized ELISA score
[13] = tested on: ZFP8196 linker TGGGGSQKP center linker F2-F3 TGEKP replaced by TGGGGSQKP (artificial); assay: ELONA; details: normalized ELISA score
[14] = tested on: ZFP8196 linker TGEGGKP center linker F2-F3 TGEKP replaced by TGEGGKP (artificial); assay: ELONA; details: normalized ELISA score
[15] = tested on: ZFP8196 linker TPGLHRPKP center linker F2-F3 TGEKP replaced by TPGLHRPKP (artificial); assay: ELONA; details: normalized ELISA score
[16] = tested on: ZFP8196 linker TPDAPKPKP center linker F2-F3 TGEKP replaced by TPDAPKPKP (artificial); assay: ELONA; details: normalized ELISA score
[17] = tested on: ZFP8196 linker TGYSIPRPKP center linker F2-F3 TGEKP replaced by TGYSIPRPKP (artificial); assay: ELONA; details: normalized ELISA score
[18] = tested on: ZFP8196 linker TEPRAKPPKP center linker F2-F3 TGEKP replaced by TEPRAKPPKP (artificial); assay: ELONA; details: normalized ELISA score
[19] = tested on: ZFP8196 linker TSSPRSNAKP center linker F2-F3 TGEKP replaced by TSSPRSNAKP (artificial); assay: ELONA; details: normalized ELISA score
[20] = tested on: ZFP8196 linker 1d center linker F2-F3 TGEKP replaced by TPNRRPAPKP (artificial); assay: ELONA; details: normalized ELISA score
[21] = tested on: ZFP8196 linker LRQKDERP center linker F2-F3 TGEKP replaced by LRQKDERP (artificial); assay: ELONA; details: normalized ELISA score
[22] = tested on: ZFP8196 linker TSPRLPAPKP center linker F2-F3 TGEKP replaced by TSPRLPAPKP (artificial); assay: ELONA; details: normalized ELISA score
[23] = tested on: ZFP8196 linker 2d center linker F2-F3 TGEKP replaced by TLAPRPYRPPKP (artificial); assay: ELONA; details: normalized ELISA score averaged over 16 2-bp gaps
[24] = tested on: ZFP8196 linker TASCPRPFRPPKP center linker F2-F3 TGEKP replaced by TASCPRPFRPPKP (artificial); assay: ELONA; details: normalized ELISA score, pool of 16 2-bp gaps
[25] = tested on: ZFP8196 linker TGGGGSGGSQKP (flexible) center linker F2-F3 TGEKP replaced by TGGGGSGGSQKP (artificial); assay: ELONA; details: normalized ELISA score averaged over 16 2-bp gaps
[26] = tested on: ZFP8196 linker 2e center linker F2-F3 TGEKP replaced by TPGGKSSRTDRNKP (artificial); assay: ELONA; details: normalized ELISA score averaged over 16 2-bp gaps
[27] = tested on: ZFP8196 linker TGSLRPYRRPKP center linker F2-F3 TGEKP replaced by TGSLRPYRRPKP (artificial); assay: ELONA; details: normalized ELISA score, pool of 16 2-bp gaps
[28] = tested on: ZFP8196 linker TNTTRPYRPPKP center linker F2-F3 TGEKP replaced by TNTTRPYRPPKP (artificial); assay: ELONA; details: normalized ELISA score, pool of 16 2-bp gaps
[29] = tested on: ZFP8196 linker TSINRPFRRPKP center linker F2-F3 TGEKP replaced by TSINRPFRRPKP (artificial); assay: ELONA; details: normalized ELISA score, pool of 16 2-bp gaps
[30] = tested on: ZFP8196 linker TGEARPYRPPKP center linker F2-F3 TGEKP replaced by TGEARPYRPPKP (artificial); assay: ELONA; details: normalized ELISA score, pool of 16 2-bp gaps
[31] = tested on: ZFP8196 linker LRQKDGGGSERP (Kim, Pabo) center linker F2-F3 TGEKP replaced by LRQKDGGGSERP (artificial); assay: ELONA; details: normalized ELISA score averaged over 16 2-bp gaps
[32] = tested on: ZFP8196 linker 2f center linker F2-F3 TGEKP replaced by TPNPHRRTDPSHKP (artificial); assay: ELONA; details: normalized ELISA score averaged over 16 2-bp gaps
[33] = tested on: ZFP8196 linker TETTRPFRPPKP center linker F2-F3 TGEKP replaced by TETTRPFRPPKP (artificial); assay: ELONA; details: normalized ELISA score, pool of 16 2-bp gaps
[34] = tested on: ZFP7264 linker TLPLPRPKP center linker F2-F3 TGSQKP replaced by TLPLPRPKP (artificial); assay: ELONA; details: normalized ELISA score
[35] = tested on: ZFP7264 linker TGLPKPKP center linker F2-F3 TGSQKP replaced by TGLPKPKP (artificial); assay: ELONA; details: normalized ELISA score
[36] = tested on: ZFP7264 linker TGGGGSQKP center linker F2-F3 TGSQKP replaced by TGGGGSQKP (artificial); assay: ELONA; details: normalized ELISA score
[37] = tested on: ZFP7264 linker TSRPRPKP center linker F2-F3 TGSQKP replaced by TSRPRPKP (artificial); assay: ELONA; details: normalized ELISA score
[38] = tested on: ZFP7264 linker TKHGTPKHREDKP center linker F2-F3 TGSQKP replaced by TKHGTPKHREDKP (artificial); assay: ELONA; details: normalized ELISA score
[39] = tested on: ZFP7264 linker TLPPCFRPKP center linker F2-F3 TGSQKP replaced by TLPPCFRPKP (artificial); assay: ELONA; details: normalized ELISA score
[40] = tested on: ZFP7264 linker 1e center linker F2-F3 TGSQKP replaced by TVPRPTPPKP (artificial); assay: ELONA; details: normalized ELISA score
[41] = tested on: ZFP7264 (host, center linker TGSQKP) (artificial); assay: ELONA; details: ELISA normalized to host on 0-bp gap target (reference)
[42] = tested on: ZFP7264 linker LRQKDERP center linker F2-F3 TGSQKP replaced by LRQKDERP (artificial); assay: ELONA; details: normalized ELISA score
[43] = tested on: ZFP7264 linker TGEGGKP center linker F2-F3 TGSQKP replaced by TGEGGKP (artificial); assay: ELONA; details: normalized ELISA score
[44] = tested on: ZFP7263 linker TYPRPLLAKP (artificial)
[45] = tested on: ZFP7263 linker TPNRCPPTKP (artificial)
[46] = tested on: ZFP7263 linker TGGGGSQKP (artificial)
[47] = tested on: ZFP7263 linker TPRPPIPKP (artificial)
[48] = tested on: ZFP7263 linker LRQKDERP (artificial)
[49] = tested on: ZFP7263 linker TGEGGKP (artificial)
[50] = tested on: ZFP7263 linker TPLCQRPMKQKP (artificial)
[51] = tested on: ZFP7263 (host, center linker TGSQKP) (artificial)
[52] = tested on: ZFP7263 linker TQRPQIPPKP (artificial)

“AAAGCGGCTCCG (double strand) [7264 yeast half-site 0-bp gap]” showed an activity (normalized MEL-1) [1] of 0.04, an activity (normalized MEL-1) [2] of 0.28 and an activity [3] of 0.08. The activity (normalized MEL-1) [4] was 1 and the activity (normalized MEL-1) [5] was 0.08.

“TTAGATAAACTGTCAAAAGGCTATC (double strand) [8196 target gap T]” showed a binding signal [6] of 0.62, a binding signal [7] of 0.19 and a binding signal [8] of 0.64. The binding signal [9] was 0.01, the binding signal [10] was 0.6 and the binding signal [11] was 0.47. It also gave a binding signal [12] of 0.8, a binding signal [13] of 0 and a binding signal [14] of 0.03. For the same sequence, the binding signal [15] was 0.81, the binding signal [16] was 0.95 and the binding signal [17] was 0.55. For the same sequence, the binding signal [18] was 0.93, the binding signal [19] was 0.25 and the binding signal [20] was 0.52. The binding signal [21] was 0.08 and the binding signal [22] was 0.81.

Work on “TTAGATAAACTGNNCAAAAGGCTATC (double strand) [8196 targets 2-bp gap, all 16 compositions]” yielded a binding signal [23] of 0.127, a binding signal [24] of 0.37 and a binding signal [25] of 0.01. It also gave a binding signal [26] of 0.1, a binding signal [27] of 0.31 and a binding signal [28] of 0.41. For the same sequence, the binding signal [29] was 0.57, the binding signal [30] was 0.61 and the binding signal [31] was 0.003. The binding signal [32] was 0.219 and the binding signal [33] was 0.57.

“TTAGTTAAAGCGGCTCCGAATATC (double strand) [7264 target 0-bp gap]” showed a binding signal [34] of 0.25, a binding signal [35] of 0.14 and a binding signal [36] of 0.46. It also gave a binding signal [37] of 0.18, a binding signal [38] of 0.01 and a binding signal [39] of 0.36. For the same sequence, the binding signal [40] was 0.16, the binding signal [41] was 1 and the binding signal [42] was 0.26. For the same sequence, the binding signal [43] was 1.39.

With “TTAGCCACTCTGCTTGGAAGTGTATC (double strand) [7263 target gap CT]” the binding signal (normalized ELISA) [44] was 0.01, the binding signal (normalized ELISA) [45] was 0.01 and the binding signal (normalized ELISA) [46] was 0.02. The binding signal (normalized ELISA) [47] was 0.01, the binding signal (normalized ELISA) [48] was 0.01 and the binding signal (normalized ELISA) [49] was 0.01. For the same sequence, the binding signal (normalized ELISA) [50] was 0.02, the binding signal (normalized ELISA) [51] was 0 and the binding signal (normalized ELISA) [52] was 0.01.
